Source: paper PMC9739478

Molecular target: human von Willebrand factor (vWF) (human) (UniProt P04275)

## glycoprotein Ib alpha chain (GPIbα) (from UniProt P07359 17-652) (receptor)
  platelet adherence to vWF-coated surface (LDH assay, normalised to PRP only = 100%) in the presence of GPIb-NPs, 1 mg/mL: 72%
  platelet adherence to vWF-coated surface (LDH assay, normalised to PRP only = 100%) in the presence of dual-NPs (GPIbα and anti-CD34 HuscFv on one NP), 1 mg/mL: 76%
  platelet adherence to vWF-coated surface (LDH assay, normalised to PRP only = 100%) in the presence of free GPIb: 86%
